Target: all the peptides, including the phosphorylated CTD peptide
Assay: BLI; Octet RED, 24°; N-terminally biotinylated peptides immobilised on streptavidin biosensors; Ess1 in solution (3, 10, 30 μM); 20 mM Tris-HCl pH 8.0, 1 mg/mL BSA; no-peptide sensor subtracted; apparent dissociation constants (Kapp) from kinetic and equilibrium data, considering only the predominant faster-dissociating signal; for unphosphorylated peptides Kapp estimated from the signal at 30 μM Ess1

B1: Recombinant S. cerevisiae Ess1 protein (enzyme)
chain: MPSDVASRTGLPTPWTVRYSKSKKREYFFNPETKHSQWEEPEGTNKDQLHKHLRDHPVRVRCLHILIKHKDSRRPASHRSENITISKQDATDELKTLITRLDDDSKTNSFEALAKERSDCSSYKRGGDLGWFGRGEMQPSFEDAAFQLKVGEVSDIVESGSGVHVIKRVG
- kon: 17500 to 27100 M⁻¹ s⁻¹
